Assay results as given in the RNAGym collection of RNA variant scans (doi:10.1021/acssynbio.7b00057).

B1: Pistol ribozyme (parent)
chain: GGGUCGUUGUUCCAUAAUCGCGUGGAUAUGGCACGCAAGUUUCUACCGGGCACCGUAAAUGUCCGACUGGAGCCGUUCGGGCGGCUAUAAACAGACCUCAGGCCCGAAGCGUGGCGGCACCUGCCGCCGGUGGUAAAAAAGAUCGGAAGAGCACACGUCU

Variants of: B1
Test: aptazyme ON/OFF ratio, guanine; higher = stronger switching; co-transcriptional cleavage with and without guanine

Variant	aptazyme ON/OFF ratio
GGGUCGUUCGAGCAUAAUCGCGUGGAUAUGGCACGCAAGUUUCUACCGGGCACCGUAAAUGUCCGACUGGAGCCGUUCGGGCGGCUAUAAACAGACCUCAGGCCCGAAGCGUGGCGGCACCUGCCGCCGGUGGUAAAAAAGAUCGGAAGAGCACACGUCU [G9C U10G U11A C12G]	1.27
GGGUCGUUCGAACAUAAUCGCGUGGAUAUGGCACGCAAGUUUCUACCGGGCACCGUAAAUGUCCGACUGGAGCCGUUCGGGCGGCUAUAAACAGACCUCAGGCCCGAAGCGUGGCGGCACCUGCCGCCGGUGGUAAAAAAGAUCGGAAGAGCACACGUCU [G9C U10G U11A C12A]	1.31
GGGUCGUUCGCGGAUAAUCGCGUGGAUAUGGCACGCAAGUUUCUACCGGGCACCGUAAAUGUCCGACUGGAGCCGUUCGGGCGGCUAUAAACAGACCUCAGGCCCGAAGCGUGGCGGCACCUGCCGCCGGUGGUAAAAAAGAUCGGAAGAGCACACGUCU [G9C U10G U11C C12G C13G]	1.24
GGGUCGUUCGCGUAUAAUCGCGUGGAUAUGGCACGCAAGUUUCUACCGGGCACCGUAAAUGUCCGACUGGAGCCGUUCGGGCGGCUAUAAACAGACCUCAGGCCCGAAGCGUGGCGGCACCUGCCGCCGGUGGUAAAAAAGAUCGGAAGAGCACACGUCU [G9C U10G U11C C12G C13U]	1.15
GGGUCGUUCGCGAAUAAUCGCGUGGAUAUGGCACGCAAGUUUCUACCGGGCACCGUAAAUGUCCGACUGGAGCCGUUCGGGCGGCUAUAAACAGACCUCAGGCCCGAAGCGUGGCGGCACCUGCCGCCGGUGGUAAAAAAGAUCGGAAGAGCACACGUCU [G9C U10G U11C C12G C13A]	1.17
GGGUCGUUCGACAAUAAUCGCGUGGAUAUGGCACGCAAGUUUCUACCGGGCACCGUAAAUGUCCGACUGGAGCCGUUCGGGCGGCUAUAAACAGACCUCAGGCCCGAAGCGUGGCGGCACCUGCCGCCGGUGGUAAAAAAGAUCGGAAGAGCACACGUCU [G9C U10G U11A C13A]	1.08
GGGUCGUUCGACGAUAAUCGCGUGGAUAUGGCACGCAAGUUUCUACCGGGCACCGUAAAUGUCCGACUGGAGCCGUUCGGGCGGCUAUAAACAGACCUCAGGCCCGAAGCGUGGCGGCACCUGCCGCCGGUGGUAAAAAAGAUCGGAAGAGCACACGUCU [G9C U10G U11A C13G]	1.09
GGGUCGUUCGACUAUAAUCGCGUGGAUAUGGCACGCAAGUUUCUACCGGGCACCGUAAAUGUCCGACUGGAGCCGUUCGGGCGGCUAUAAACAGACCUCAGGCCCGAAGCGUGGCGGCACCUGCCGCCGGUGGUAAAAAAGAUCGGAAGAGCACACGUCU [G9C U10G U11A C13U]	1.05
GGGUCGUUCGAAAAUAAUCGCGUGGAUAUGGCACGCAAGUUUCUACCGGGCACCGUAAAUGUCCGACUGGAGCCGUUCGGGCGGCUAUAAACAGACCUCAGGCCCGAAGCGUGGCGGCACCUGCCGCCGGUGGUAAAAAAGAUCGGAAGAGCACACGUCU [G9C U10G U11A C12A C13A]	1.23
GGGUCGUUCGAAUAUAAUCGCGUGGAUAUGGCACGCAAGUUUCUACCGGGCACCGUAAAUGUCCGACUGGAGCCGUUCGGGCGGCUAUAAACAGACCUCAGGCCCGAAGCGUGGCGGCACCUGCCGCCGGUGGUAAAAAAGAUCGGAAGAGCACACGUCU [G9C U10G U11A C12A C13U]	1.52
GGGUCGUUCGAAGAUAAUCGCGUGGAUAUGGCACGCAAGUUUCUACCGGGCACCGUAAAUGUCCGACUGGAGCCGUUCGGGCGGCUAUAAACAGACCUCAGGCCCGAAGCGUGGCGGCACCUGCCGCCGGUGGUAAAAAAGAUCGGAAGAGCACACGUCU [G9C U10G U11A C12A C13G]	1.06
GGGUCGUUCGGACAUAAUCGCGUGGAUAUGGCACGCAAGUUUCUACCGGGCACCGUAAAUGUCCGACUGGAGCCGUUCGGGCGGCUAUAAACAGACCUCAGGCCCGAAGCGUGGCGGCACCUGCCGCCGGUGGUAAAAAAGAUCGGAAGAGCACACGUCU [G9C U10G U11G C12A]	1.18
GGGUCGUUCGCAUAUAAUCGCGUGGAUAUGGCACGCAAGUUUCUACCGGGCACCGUAAAUGUCCGACUGGAGCCGUUCGGGCGGCUAUAAACAGACCUCAGGCCCGAAGCGUGGCGGCACCUGCCGCCGGUGGUAAAAAAGAUCGGAAGAGCACACGUCU [G9C U10G U11C C12A C13U]	1.25
GGGUCGUUCGCAGAUAAUCGCGUGGAUAUGGCACGCAAGUUUCUACCGGGCACCGUAAAUGUCCGACUGGAGCCGUUCGGGCGGCUAUAAACAGACCUCAGGCCCGAAGCGUGGCGGCACCUGCCGCCGGUGGUAAAAAAGAUCGGAAGAGCACACGUCU [G9C U10G U11C C12A C13G]	1.15
GGGUCGUUCGCAAAUAAUCGCGUGGAUAUGGCACGCAAGUUUCUACCGGGCACCGUAAAUGUCCGACUGGAGCCGUUCGGGCGGCUAUAAACAGACCUCAGGCCCGAAGCGUGGCGGCACCUGCCGCCGGUGGUAAAAAAGAUCGGAAGAGCACACGUCU [G9C U10G U11C C12A C13A]	1.22
GGGUCGUUCGAUUAUAAUCGCGUGGAUAUGGCACGCAAGUUUCUACCGGGCACCGUAAAUGUCCGACUGGAGCCGUUCGGGCGGCUAUAAACAGACCUCAGGCCCGAAGCGUGGCGGCACCUGCCGCCGGUGGUAAAAAAGAUCGGAAGAGCACACGUCU [G9C U10G U11A C12U C13U]	1.08
GGGUCGUUCGAUAAUAAUCGCGUGGAUAUGGCACGCAAGUUUCUACCGGGCACCGUAAAUGUCCGACUGGAGCCGUUCGGGCGGCUAUAAACAGACCUCAGGCCCGAAGCGUGGCGGCACCUGCCGCCGGUGGUAAAAAAGAUCGGAAGAGCACACGUCU [G9C U10G U11A C12U C13A]	1.09
GGGUCGUUCGAUGAUAAUCGCGUGGAUAUGGCACGCAAGUUUCUACCGGGCACCGUAAAUGUCCGACUGGAGCCGUUCGGGCGGCUAUAAACAGACCUCAGGCCCGAAGCGUGGCGGCACCUGCCGCCGGUGGUAAAAAAGAUCGGAAGAGCACACGUCU [G9C U10G U11A C12U C13G]	1.09
